Experiment [1] concerns the target T1, kinesin-4ΔN (human kinesin-4, aa 733-1232) (human, UniProt O95239 733-1232).
T1 sequence (looked up): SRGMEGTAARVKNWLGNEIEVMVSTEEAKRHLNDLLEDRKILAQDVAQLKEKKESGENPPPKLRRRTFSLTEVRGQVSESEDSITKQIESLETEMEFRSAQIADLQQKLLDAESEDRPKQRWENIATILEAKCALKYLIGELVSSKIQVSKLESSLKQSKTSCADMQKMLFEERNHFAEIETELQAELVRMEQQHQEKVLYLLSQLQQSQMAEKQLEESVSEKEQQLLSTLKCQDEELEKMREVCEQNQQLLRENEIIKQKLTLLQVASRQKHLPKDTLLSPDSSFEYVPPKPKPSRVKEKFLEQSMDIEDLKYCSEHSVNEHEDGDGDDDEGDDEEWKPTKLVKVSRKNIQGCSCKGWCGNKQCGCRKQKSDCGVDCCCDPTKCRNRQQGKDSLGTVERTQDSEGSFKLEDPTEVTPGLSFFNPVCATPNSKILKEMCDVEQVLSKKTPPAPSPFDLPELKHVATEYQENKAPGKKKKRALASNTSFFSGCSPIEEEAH
Put plainly: pull-down.

Experiment [2] concerns the target T2, kinesin-4 (human full-length, unlabeled) (human, UniProt O95239 1-1232).
T2 sequence (looked up): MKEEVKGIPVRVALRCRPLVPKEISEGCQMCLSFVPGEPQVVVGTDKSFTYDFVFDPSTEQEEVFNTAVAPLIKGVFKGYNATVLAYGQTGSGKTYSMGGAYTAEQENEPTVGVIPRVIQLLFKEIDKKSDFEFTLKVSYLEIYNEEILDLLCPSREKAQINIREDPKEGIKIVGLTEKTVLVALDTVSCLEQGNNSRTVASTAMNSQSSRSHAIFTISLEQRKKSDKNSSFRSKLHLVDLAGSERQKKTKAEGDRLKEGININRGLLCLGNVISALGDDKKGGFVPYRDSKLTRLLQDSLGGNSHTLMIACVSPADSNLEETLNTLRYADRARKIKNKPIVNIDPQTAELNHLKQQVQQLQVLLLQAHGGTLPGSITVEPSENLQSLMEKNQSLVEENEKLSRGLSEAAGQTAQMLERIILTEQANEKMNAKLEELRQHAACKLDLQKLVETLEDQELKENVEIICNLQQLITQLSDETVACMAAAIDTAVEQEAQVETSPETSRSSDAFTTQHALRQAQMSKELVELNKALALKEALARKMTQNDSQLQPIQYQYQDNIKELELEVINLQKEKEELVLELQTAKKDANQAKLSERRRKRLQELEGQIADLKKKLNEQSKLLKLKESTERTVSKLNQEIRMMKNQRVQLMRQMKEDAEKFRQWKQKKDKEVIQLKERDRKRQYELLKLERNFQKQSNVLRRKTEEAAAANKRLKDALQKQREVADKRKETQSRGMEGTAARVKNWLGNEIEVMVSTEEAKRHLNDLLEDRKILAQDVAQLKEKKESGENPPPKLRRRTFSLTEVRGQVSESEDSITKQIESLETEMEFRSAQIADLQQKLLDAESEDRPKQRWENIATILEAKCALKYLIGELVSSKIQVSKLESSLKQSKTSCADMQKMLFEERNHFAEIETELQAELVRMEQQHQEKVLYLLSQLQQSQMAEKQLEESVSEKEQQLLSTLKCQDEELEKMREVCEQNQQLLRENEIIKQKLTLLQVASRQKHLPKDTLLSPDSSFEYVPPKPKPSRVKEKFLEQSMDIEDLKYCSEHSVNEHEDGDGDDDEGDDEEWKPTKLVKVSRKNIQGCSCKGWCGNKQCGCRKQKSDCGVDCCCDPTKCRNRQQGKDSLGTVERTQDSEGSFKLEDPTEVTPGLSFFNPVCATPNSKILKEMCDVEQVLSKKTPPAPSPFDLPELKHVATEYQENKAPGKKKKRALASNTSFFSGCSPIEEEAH
Briefly: TIRF microscopy, end-tag formation on immobilized microtubules.

Experiment [3] addresses T3, kinesin-4-GFP (human full-length kinesin-4, GFP-labeled) (human), O95239.
T3 chain: T2 sequence (looked up)
Put plainly: single-molecule fluorescence intensity analysis. The following applies: remark: other sources report otherwise.

B1: PRC1NSΔC3 (human PRC1, aa 1-168) (domain or fragment, UniProt O43663 1-168, looked up)
chain: MRRSEVLAEESIVCLQKALNHLREIWELIGIPEDQRLQRTEVVKKHIKELLDMMIAEEESLKERLIKSISVCQKELNTLCSELHVEPFQEEGETTILQLEKDLRTQVELMRKQKKERKQELKLLQEQDQELCEILCMPHYDIDSASVPSLEELNQFRQHVTTLRETKA
What is called Kd is the free concentration of one partner at which half of the binding sites on the other are occupied at equilibrium, for simple one-to-one binding. Read a high Kd as lower affinity. Consider B1, for which the Kd in experiment [1] is 1.2 ± 0.4 µM.

B2: PRC1NSΔC2 (human PRC1, aa 1-117) (domain or fragment, UniProt O43663 1-117, looked up)
chain: MRRSEVLAEESIVCLQKALNHLREIWELIGIPEDQRLQRTEVVKKHIKELLDMMIAEEESLKERLIKSISVCQKELNTLCSELHVEPFQEEGETTILQLEKDLRTQVELMRKQKKER
In turn, B2 returned a Kd in experiment [1] of 2.3 ± 0.6 µM. This Kd is about 1.9-fold higher than that of the molecule before.

B3: GFP-PRC1 (human full-length PRC1, aa 1-620, GFP-labeled) (natural protein, UniProt O43663 1-620, looked up)
chain: MRRSEVLAEESIVCLQKALNHLREIWELIGIPEDQRLQRTEVVKKHIKELLDMMIAEEESLKERLIKSISVCQKELNTLCSELHVEPFQEEGETTILQLEKDLRTQVELMRKQKKERKQELKLLQEQDQELCEILCMPHYDIDSASVPSLEELNQFRQHVTTLRETKASRREEFVSIKRQIILCMEALDHTPDTSFERDVVCEDEDAFCLSLENIATLQKLLRQLEMQKSQNEAVCEGLRTQIRELWDRLQIPEEEREAVATIMSGSKAKVRKALQLEVDRLEELKMQNMKKVIEAIRVELVQYWDQCFYSQEQRQAFAPFCAEDYTESLLQLHDAEIVRLKNYYEVHKELFEGVQKWEETWRLFLEFERKASDPNRFTNRGGNLLKEEKQRAKLQKMLPKLEEELKARIELWEQEHSKAFMVNGQKFMEYVAEQWEMHRLEKERAKQERQLKNKKQTETEMLYGSAPRTPSKRRGLAPNTPGKARKLNTTTMSNATANSSIRPIFGGTVYHSPVSRLPPSGSKPVAASTCSGKKTPRTGRHGANKENLELNGSILSGGYPGSAPLQRNFSINSVASTYSEFAKDPSLSDSSTVGLQRELSKASKSDATSGILNSTNIQS
As for B3, the binding result in experiment [2] is given as “binds”.

B4: kinesin-4-GFP (human full-length kinesin-4, GFP-labeled), O95239 1-1232 (natural protein)
chain: T2 sequence (looked up)
One may read the stoichiometry N as a count of units in the complex or per binding partner. In the case of B4, the stoichiometry N in experiment [3] worked out at 2.

B5: PRC1NSΔC (human PRC1, aa 1-486) (domain or fragment, UniProt O43663 1-486, looked up)
chain: MRRSEVLAEESIVCLQKALNHLREIWELIGIPEDQRLQRTEVVKKHIKELLDMMIAEEESLKERLIKSISVCQKELNTLCSELHVEPFQEEGETTILQLEKDLRTQVELMRKQKKERKQELKLLQEQDQELCEILCMPHYDIDSASVPSLEELNQFRQHVTTLRETKASRREEFVSIKRQIILCMEALDHTPDTSFERDVVCEDEDAFCLSLENIATLQKLLRQLEMQKSQNEAVCEGLRTQIRELWDRLQIPEEEREAVATIMSGSKAKVRKALQLEVDRLEELKMQNMKKVIEAIRVELVQYWDQCFYSQEQRQAFAPFCAEDYTESLLQLHDAEIVRLKNYYEVHKELFEGVQKWEETWRLFLEFERKASDPNRFTNRGGNLLKEEKQRAKLQKMLPKLEEELKARIELWEQEHSKAFMVNGQKFMEYVAEQWEMHRLEKERAKQERQLKNKKQTETEMLYGSAPRTPSKRRGLAPNTPGKAR
On to B5, for which, in experiment [1], the Kd amounted to 0.3 ± 0.03 µM.

B6: PRC1NSΔC5 (human PRC1, aa 1-303) (domain or fragment, UniProt O43663 1-303, looked up)
chain: MRRSEVLAEESIVCLQKALNHLREIWELIGIPEDQRLQRTEVVKKHIKELLDMMIAEEESLKERLIKSISVCQKELNTLCSELHVEPFQEEGETTILQLEKDLRTQVELMRKQKKERKQELKLLQEQDQELCEILCMPHYDIDSASVPSLEELNQFRQHVTTLRETKASRREEFVSIKRQIILCMEALDHTPDTSFERDVVCEDEDAFCLSLENIATLQKLLRQLEMQKSQNEAVCEGLRTQIRELWDRLQIPEEEREAVATIMSGSKAKVRKALQLEVDRLEELKMQNMKKVIEAIRVELVQ
Regarding B6, in experiment [1], binding was characterised by a dissociation constant (Kd) of 0.3 ± 0.06 µM.

B7: PRC1ΔN2SΔC (human PRC1, aa 41-486) (domain or fragment, UniProt O43663 41-486, looked up)
chain: EVVKKHIKELLDMMIAEEESLKERLIKSISVCQKELNTLCSELHVEPFQEEGETTILQLEKDLRTQVELMRKQKKERKQELKLLQEQDQELCEILCMPHYDIDSASVPSLEELNQFRQHVTTLRETKASRREEFVSIKRQIILCMEALDHTPDTSFERDVVCEDEDAFCLSLENIATLQKLLRQLEMQKSQNEAVCEGLRTQIRELWDRLQIPEEEREAVATIMSGSKAKVRKALQLEVDRLEELKMQNMKKVIEAIRVELVQYWDQCFYSQEQRQAFAPFCAEDYTESLLQLHDAEIVRLKNYYEVHKELFEGVQKWEETWRLFLEFERKASDPNRFTNRGGNLLKEEKQRAKLQKMLPKLEEELKARIELWEQEHSKAFMVNGQKFMEYVAEQWEMHRLEKERAKQERQLKNKKQTETEMLYGSAPRTPSKRRGLAPNTPGKAR
The molecule B7 had a Kd in experiment [1] of 1.6 ± 0.11 µM.

B8: PRC1NSΔC4 (human PRC1, aa 1-231) (domain or fragment, UniProt O43663 1-231, looked up)
chain: MRRSEVLAEESIVCLQKALNHLREIWELIGIPEDQRLQRTEVVKKHIKELLDMMIAEEESLKERLIKSISVCQKELNTLCSELHVEPFQEEGETTILQLEKDLRTQVELMRKQKKERKQELKLLQEQDQELCEILCMPHYDIDSASVPSLEELNQFRQHVTTLRETKASRREEFVSIKRQIILCMEALDHTPDTSFERDVVCEDEDAFCLSLENIATLQKLLRQLEMQKSQ
For the molecule B8, binding in experiment [1] was put at a Kd of 0.3 ± 0.04 µM.

The values are drawn from article PMC3761943 (Cell, 2013).
